In the supplement of paper PMC9732359:
± gives the uncertainty stated by the source.

Assay: protein stability index of a GFP-peptide fusion (yeast GPS) (PSI 1-4); higher = more stable; sorted into four equal gates, so the index is relative within each strain
Settings: doa10∆
How it was run: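 The protein stability index combines read frequencies across sorting gates, each weighted by its gate number and then summed. To obtain those frequencies, a pooled yeast library of GFP fusions to tiled 17-residue yeast protein peptides, on a plasmid also expressing Cherry, was grown to mid-log phase in leucine-free medium. The cells were sorted into four equal gates by GFP/Cherry ratio before plasmid amplification by PCR and Illumina sequencing.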

LLENSVDKNFDKLELYV [MTW1] and LLEQDTSTEKLYKLNDK [PRE9] are within error of each other in protein stability index: 3.03 ± 0.052 for the first, 2.99 ± 0.062 for the second.

First: LLFFNFSHSLTTILSFS [NUT1]
Second: LLGNCYSLRLINKEIFH [SRB8]
The protein stability index of the first is lower: 1.41 ± 0.046 for the first, 1.79 ± 0.069 for the second.

LLHEMTQTYMQMIELNR [GRR1] and LLNRIPRMYHIGLRQFQ [POP1] are within error of each other in protein stability index: 2.18 ± 0.072 for the first, 2.09 ± 0.099 for the second.

Compared with LLNTDHTLDPSLLESGS [RPO21], LLPQWDDDQIESLKKSP [ARP9] is higher in protein stability index: 2.93 ± 0.085 for the first, 3.17 ± 0.085 for the second.

Compared with LLQSSIINKLIHIQSKE [POP3], LLQVNKTFCEDPFSDVD [GRR1] is higher in protein stability index: 2.49 ± 0.069 for the first, 3.13 ± 0.072 for the second.

LLSFVLGVVFGRGGSGW [YML031W/NDC1] and LLSLINSTHLLPLQPIE [SNF12] are within error of each other in protein stability index: 2.33 ± 0.068 for the first, 2.34 ± 0.053 for the second.

Compared with LLTAKHGMTLRESFEDN [RPO21], LLTVTPGPRLLYENIAS [RPN10] is lower in protein stability index: 2.96 ± 0.13 for the first, 1.86 ± 0.036 for the second.

Compared with LLVDQKQLNSLRRSGQI [SMD1], LLVGLIKTFYWLEQFLS [NUT1] is lower in protein stability index: 2.57 ± 0.047 for the first, 2.24 ± 0.12 for the second.

Going from LLVQSLNDMVLELKENY [NNF1] to LLYLRLKNIYVSADDFV [PRP8], the protein stability index falls from 2.75 ± 0.14 to 1.26 ± 0.052.

First: LMISPKDEETTEKARLI [RRI2]
Second: LMKCCHEAYSIIEKITD [RRP45]
The protein stability index of the first is higher: 2.8 ± 0.15 for the first, 2.56 ± 0.067 for the second.

Compared with LMMVEKVPDSTYDMVGG [RPT6], LMRSCFYLMVSSLSFGP [YJL039C/NUP192] is lower in protein stability index: 2.6 ± 0.081 for the first, 1.64 ± 0.04 for the second.

Going from LMRTFLYTLAQETEGTN [SIR3] to LMYSITFHHHGRQTVLI [SRB2], the protein stability index rises from 2.63 ± 0.12 to 3 ± 0.07.

Compared with LNDLVESSFIEIDDTEA [BRR2], LNDMNTEISGLKNVNKR [SMC3] is higher in protein stability index: 2.9 ± 0.037 for the first, 3.26 ± 0.064 for the second.

First: LNDRKVLFAAYKVEHPF [RPB11]
Second: LNDTTEKSKALESEIAS [SMC2]
The protein stability index of the first is lower: 1.72 ± 0.055 for the first, 3.53 ± 0.19 for the second.

LNDVVSFLFSAIPLQQV [SWI1] and LNECLKTIQINNEKVVQ [YML031W/NDC1] are within error of each other in protein stability index: 1.83 ± 0.044 for the first, 1.96 ± 0.12 for the second.

First: LNELETLIKKKQDEKKS [SMC2]
Second: LNELHPTLPTNHNKTKL [PRP8]
The protein stability index of the first is higher: 3.24 ± 0.087 for the first, 2.88 ± 0.064 for the second.

Going from LNESRSQHKKILEELDF [SMC3] to LNITTVFSHAQTAVTCE [RPS27A], the protein stability index falls from 3.38 ± 0.12 to 2.38 ± 0.043.

Compared with LNLEQVTLNKYCSGNIY [YJL039C/NUP192], LNLTGPKVPEDIYKSHL [RPN1] is higher in protein stability index: 2.37 ± 0.044 for the first, 2.9 ± 0.15 for the second.

Going from LNRFNFQNTNTRSALKL [QCR2] to LNRSHFATTKAECISLI [ECM29], the protein stability index falls from 2.71 ± 0.076 to 1.51 ± 0.061.

Compared with LNSFAFELCSLGDKELW [YJR042W/NUP85], LNSYWVNQDSTYKYFEV [RPL15A] is higher in protein stability index: 1.76 ± 0.22 for the first, 3.23 ± 0.061 for the second.

First: LNTLLVTSADSNLKISL [SWI1]
Second: LNVQVWHIEETGEWFSS [ITC1]
The protein stability index of the first is higher: 2.71 ± 0.078 for the first, 1.83 ± 0.051 for the second.

Compared with LPDEKSDAMSIDEEDKD [YCG1], LPILPIQRLRLLREKQR [YOR098C/NUP1] is lower in protein stability index: 3.04 ± 0.17 for the first, 2.09 ± 0.086 for the second.

Going from LPKFLTVQYVRFFWKRS [UBP6] to LPKVRIRTRRAAELLDK [DIS3], the protein stability index rises from 1.62 ± 0.04 to 1.78 ± 0.096.

LPKYQTIQYDPPETKLP [SNF5] and LPNEMSQNDGFVIIRGS [RPO31] are within error of each other in protein stability index: 3.03 ± 0.052 for the first, 3.07 ± 0.19 for the second.

Compared with LPNIYPSTRCKLKLLRM [RPT2], LPNQFPLKIHRTPYLTS [SWI1] is higher in protein stability index: 1.33 ± 0.037 for the first, 2.07 ± 0.042 for the second.

Going from LPSGVLSRGDDEVTIRR [SMC3] to LPVMESLDSCTAAFTAM [YJR042W/NUP85], the protein stability index falls from 3.44 ± 0.083 to 2.65 ± 0.085.

Compared with LQDELKELQLEKESVEK [SMC3], LQETLNKSTSSEAEYSK [YIL149C/MLP2] is lower in protein stability index: 3.66 ± 0.13 for the first, 3.11 ± 0.08 for the second.

Compared with LQFKSIREIDVAGGKKA [RPS7A], LQGISTLRPRQYATVSK [RPL34A] is higher in protein stability index: 1.45 ± 0.14 for the first, 2.59 ± 0.13 for the second.

Compared with LQKKVASILLALTQMDQ [RPB3], LQQKQRDLILKKGEYAR [SMC3] is lower in protein stability index: 2.88 ± 0.15 for the first, 2.3 ± 0.12 for the second.

First: LQRASSKMGAPWCVKPE [ITC1]
Second: LQRKDYTSIVQCCEFMT [YML103C/NUP188]
The protein stability index of the first is higher: 3.14 ± 0.089 for the first, 1.48 ± 0.059 for the second.

Compared with LQSNSKLASTLEKISSS [SMC4], LQYTALTGSPNNPLVQK [ARP7] is lower in protein stability index: 2.79 ± 0.04 for the first, 2.66 ± 0.07 for the second.

First: LRKSELEYYAMLSKTKV [RPL30]
Second: LRLLEVTDDDRLWLKKV [POP8]
The protein stability index of the first is higher: 2.62 ± 0.075 for the first, 1.36 ± 0.061 for the second.

Compared with LRNYLTPNVREEKQKSY [PUP1], LRRVNARYVIATSTKVS [RPL6A] is lower in protein stability index: 3.41 ± 0.21 for the first, 1.45 ± 0.058 for the second.

Going from LRWFELKPKLYYEQFRP [SIR3] to LSAPLSKELRAQYGIKA [RPL26A], the protein stability index falls from 3.21 ± 0.074 to 2.91 ± 0.14.

Compared with LSCEKITHYAVRGGNIE [RRI1], LSDYNIQKESTLHLVLR [RPS31] is higher in protein stability index: 2.37 ± 0.062 for the first, 2.78 ± 0.08 for the second.

First: LSEEKEVIFTDVLKSQA [MCD1]
Second: LSFSWAILLIINLTQTY [NUT1]
The protein stability index of the first is higher: 2.92 ± 0.2 for the first, 1.5 ± 0.088 for the second.

Going from LSIAIVGKDTPFTIYDG [PRE5] to LSIRLTNQLKSLKGLQS [RPN8], the protein stability index falls from 2.87 ± 0.066 to 1.48 ± 0.17.

Compared with LSISVPSDVNIDVMKSQ [SNU114], LSKINAIQLDYSTANEY [RPN3] is higher in protein stability index: 2.86 ± 0.057 for the first, 3.13 ± 0.084 for the second.

First: LSKMENVNLDDYPDDSG [NAS6]
Second: LSLKRTLTDILEDELYH [RPN4]
The protein stability index of the first is lower: 2.75 ± 0.11 for the first, 3.11 ± 0.1 for the second.

Going from LSLMLESPNYCNALIHI [SRB4] to LSLTAFTKNEEKLLKEL [ITC1], the protein stability index rises from 1.52 ± 0.044 to 2.24 ± 0.081.

Going from LSMRFQRETSGMIVISM [SRB8] to LSNFNADINLEESIRES [SIR3], the protein stability index rises from 2.13 ± 0.081 to 3.16 ± 0.12.

LSNLSKDIKANLSSNVN [YCS4] and LSNSNRFELHGDMTNSD [REC8] are within error of each other in protein stability index: 2.85 ± 0.05 for the first, 2.82 ± 0.14 for the second.

LSQSSSYLETLTALGKE [MED2] and LSSAGAKSTVETFISSM [RIP1] are within error of each other in protein stability index: 3.12 ± 0.097 for the first, 3.08 ± 0.17 for the second.

Compared with LSSGENRYAFSQPTNST [SMC4], LSSHSSTNSNSKPSTAS [RPN4] is lower in protein stability index: 3.22 ± 0.14 for the first, 2.61 ± 0.087 for the second.

Compared with LSVEIGVLTDISSLIGG [NUT1], LTAIPILLEPIYEVDIT [SNU114] is higher in protein stability index: 1.32 ± 0.13 for the first, 2.24 ± 0.047 for the second.

LTFHTLKKANIIYHTTF [YLR018C/POM34] and LTSSKSVIVSQFCAFDS [SIN4] are within error of each other in protein stability index: 1.9 ± 0.036 for the first, 2 ± 0.066 for the second.

Going from LTVSIKIALMNIPKPLN [RGR1] to LTYAQQQLNKQRQDFER [SNF6], the protein stability index rises from 1.19 ± 0.044 to 2.49 ± 0.073.

Going from LVADGVFYAELNEFFTR [RPS3] to LVALKRNADELSSYQKK [PRE5], the protein stability index falls from 3.2 ± 0.12 to 2.4 ± 0.048.

Going from LVDLVSHFSPDIKAAVD [ITC1] to LVEVEDEKIEAIKKKEK [SRB7], the protein stability index rises from 1.95 ± 0.063 to 2.57 ± 0.16.

Same assay, conditions: pdr5∆

For LLENSVDKNFDKLELYV [MTW1], the protein stability index was 2.64 ± 0.065.
